One block for each binder: values may come before it.
Key:
murine IL-13 (murine) [1] = molecular target: T1, murine IL-13 (murine)
T1 sequence: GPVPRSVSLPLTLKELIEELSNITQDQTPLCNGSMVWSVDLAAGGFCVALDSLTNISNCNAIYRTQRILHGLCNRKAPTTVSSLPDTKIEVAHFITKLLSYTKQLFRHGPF

murine IL-13 (murine) [2] = molecular target: T1, murine IL-13 (murine); remark: listed apart in the source

human IL-13 (human), sequence (chain, as listed by the source): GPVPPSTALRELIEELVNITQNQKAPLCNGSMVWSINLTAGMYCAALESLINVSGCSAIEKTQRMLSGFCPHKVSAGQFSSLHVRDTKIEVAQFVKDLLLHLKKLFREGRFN

IC50, TF-1 proliferation (Mean TF1) (human IL-13 (human)): 44 nM
B1: BAK278D6 scFv (scFv, V domains shown)
VH: EVQLVQSGAEVKKPGASVKVSCKASGYTFRNYGLSWVRQAPGQGLEWMGWISANNGDTNYGQEFQGRITMTTETSTNTAHMELRSLRSDDTAVYYCVRDSSSNWARWFFDLWGKGTMVTVSS
VL: SYVLTQPPSVSVAPGQTARIPCGGNNIGSKLVHWYQQKPGQAPVLVVYDDGDRPSGIPERFSGSNSGNTATLTISRIDAGDEADYYCQVWDTGSDPVVFGGGTKLTVL

IC50, TF-1 cell proliferation (murine IL-13 (murine) [1]): 185 nM
B2: BAK209B11 scFv (scFv, V domains shown)
VH: VQLQESGGGGLVQPGGSLRLSCAASGFTFSSYGMSWVRQAPGKGLEWVSSISASGDSTFYADSVKGRFTISRDNNKNMVFLQVNSLRADDTAVYFCAKDWSQWLVGDAFDVWGRGTTVTVSS
VL: DIQLTQSPSTLSASVGDRVTITCRASQSVSLWVAWYQQRPGKAPKLLIYDGSTLQSGVPARFSGSGSGTEFTLTISSLQPDDFATYYCQQYKTFSTFGQGTKVEIKR

IC50, B9 cell proliferation (murine IL-13 (murine) [2]): 0.776 nM
B3: BAK209B11 human IgG4 (antibody, V domains shown)
VH: B2 VH
VL: B2 VL

From patent US7935343B2
